{
  "source": "patent US20250043017A1",
  "about": "(Regeneron, published 2025)",
  "key": {"[1]": {"target": "T1, human 4-1BB expressed with a C-terminal myc-myc-hexahistidine tag (h4-1BB.mmH) (human)", "T1 construct": "also called hCD137 (4-1BB) mmH", "T1 sequence (chain, as listed by the source limits assumed)": "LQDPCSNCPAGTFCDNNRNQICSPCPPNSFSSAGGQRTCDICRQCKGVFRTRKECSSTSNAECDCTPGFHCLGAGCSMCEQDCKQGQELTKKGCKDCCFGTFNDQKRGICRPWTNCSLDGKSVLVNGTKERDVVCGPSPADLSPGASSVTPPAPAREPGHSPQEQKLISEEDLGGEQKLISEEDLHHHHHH", "assay": "blocking ELISA, 0.25 nM h4-1BB-mmh binding to coated 6His-Flag-h4-1BBL", "description": "The 4-1BB blocking assay was performed similarly to the PD-L1 blocking assay. 6His-Flag-h4-1BBL protein ([…] in PBS) was coated onto a 96-well microtiter plate overnight at 4 °C. […] The plates were developed using TMB substrate solution (BD Biosciences) and the absorbance at 450 nm was measured on a SpectraMax I3x plate reader.\n(§1) Binding data were analyzed using a sigmoidal (four-parameter logistic) dose-response model with GraphPad Prism™ software. […] The percent blocking of tested antibodies at the highest tested concentration of 100 nM was calculated based on the formula shown below: […]"}, "human PD-L1 on cells [2]": {"target": "T2, human PD-L1 on cells (human, UniProt Q9NZQ7 19-290)", "T2 construct": "whole, on cells; the cell line stands under assay; also called hPD-L1; OVCAR3/hPD-L1", "T2 sequence (Q9NZQ7 19-290)": "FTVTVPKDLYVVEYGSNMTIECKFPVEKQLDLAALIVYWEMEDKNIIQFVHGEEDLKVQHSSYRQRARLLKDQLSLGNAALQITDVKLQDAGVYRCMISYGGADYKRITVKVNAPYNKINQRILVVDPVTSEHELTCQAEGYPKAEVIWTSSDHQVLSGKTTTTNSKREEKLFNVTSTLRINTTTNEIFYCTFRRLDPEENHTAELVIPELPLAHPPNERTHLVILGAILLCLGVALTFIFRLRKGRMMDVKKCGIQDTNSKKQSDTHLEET", "assay": "flow cytometry, OVCAR3 cells (low endogenous PD-L1)", "description": "(§2) Binding was detected by using a labeled secondary antibody and measuring fluorescence on a flow cytometer.\n(§3) Assay set up: OVCAR-3+/−PD-L1 cells were lifted with trypsin, washed and resuspended in stain buffer (2% FBS in PBS). OVCAR-3 and Jurkat/NFkB-Luc/h41BB cells were counted and added to wells at 200,000 cells/well. Cells, in wells of 96-well round bottom plates, were pelleted by centrifugation and resuspended in 150 ul stain buffer (PBS containing 2% FBS). Plates were once again centrifuged and subsequently 100 ul of stain buffer alone or stain buffer containing antibody, titrated from 200 nM to 12 pM in a 9-point 1:4 dose titration were added to cells. Cells and antibodies were incubated for 30 min on ice and then washed in stain buffer. Cells were resuspended in 2 μg/ml allophycocyanin (APC) conjugated goat-anti human secondary antibody. A secondary antibody alone control was included. Cells and secondary were incubated for 30 min on ice and then washed in stain buffer. […] After washing they were filtered and analyzed by flow cytometry. EC₅₀ values of the antibodies were determined from a 4 parameter logistic equation over a 9-point dose response curve (including secondary only control) using GraphPad Prism software."}, "[3]": {"target": "human PD-L1 expressed with a C-terminal myc-myc-hexahistidine tag (hPD-L1.mmH) (human)", "sequence (chain, as listed by the source limits assumed)": "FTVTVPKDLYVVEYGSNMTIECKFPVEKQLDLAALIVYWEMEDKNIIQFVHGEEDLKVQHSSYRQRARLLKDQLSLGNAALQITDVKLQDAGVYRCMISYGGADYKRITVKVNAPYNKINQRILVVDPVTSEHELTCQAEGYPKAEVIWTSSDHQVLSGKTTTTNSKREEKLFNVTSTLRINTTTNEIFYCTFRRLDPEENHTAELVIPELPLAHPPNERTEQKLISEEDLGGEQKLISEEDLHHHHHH", "assay": "SPR Biacore, 25 C, antibody captured via anti-hFc, hPD-L1.mmH as analyte", "description": "(§4) The CM5 Biacore sensor surface was derivatized by amine coupling with a monoclonal mouse anti-human Fc antibody. All Biacore binding studies were performed in a buffer composed of 0.01M HEPES pH 7.4, 0.15M NaCl, 3 mM EDTA, 0.05% v/v Surfactant P20 (HBS-EP running buffer). […] Antibody-reagent association was monitored for 5 minutes while dissociation in HBS-EP running buffer was monitored for 10 minutes. At the end of each cycle, the antibody capture surface was regenerated using a 12 sec injection of 20 mM phosphoric acid. All binding kinetics experiments were performed at 25° C.\n(§5) Data analysis: The specific SPR-Biacore sensorgrams were obtained by a double referencing procedure. The double referencing was performed by first subtracting the signal of each injection over a reference surface (anti-hFc or anti-mFc) from the signal over the experimental surface (anti-hFc-captured anti-PD-L1×4-1BB antibodies) thereby removing contributions from refractive index changes. In addition, running buffer injections were performed to allow subtraction of the signal changes resulting from the dissociation of captured antibodies or antigens from the coupled anti-hFc or anti-mFc surface. Kinetic association (kₐ) and dissociation (kd) rate constants were determined by fitting the real-time sensorgrams to a 1:1 binding model using Scrubber v2.0c curve fitting software. Binding dissociation equilibrium constants (KD) and dissociative half-lives (t½) were calculated from the kinetic rate constants as: […]"}, "human PD-L1 on cells [4]": {"target": "T2, human PD-L1 on cells", "assay": "flow cytometry, Jurkat/NFkB-Luc/h41BB cells (potential low endogenous PD-L1)", "description": "as §2, §3"}, "human PD-L1 on cells [5]": {"target": "T2, human PD-L1 on cells", "assay": "flow cytometry, OVCAR3/hPD-L1 cells", "description": "as §2, §3"}, "human PD-L1 on cells [6]": {"target": "T2, human PD-L1 on cells", "assay": "cell-based or functional assay"}, "[7]": {"target": "T1, human 4-1BB expressed with a C-terminal …", "assay": "SPR Biacore, 25 C, antibody captured via anti-hFc, h4-1BB.mmH as analyte", "description": "as §4, with “10” for “12”\nas §5"}, "human 4-1BB on cells [8]": {"target": "T3, human 4-1BB on cells (human, UniProt Q07011 24-255)", "T3 sequence (Q07011 24-255)": "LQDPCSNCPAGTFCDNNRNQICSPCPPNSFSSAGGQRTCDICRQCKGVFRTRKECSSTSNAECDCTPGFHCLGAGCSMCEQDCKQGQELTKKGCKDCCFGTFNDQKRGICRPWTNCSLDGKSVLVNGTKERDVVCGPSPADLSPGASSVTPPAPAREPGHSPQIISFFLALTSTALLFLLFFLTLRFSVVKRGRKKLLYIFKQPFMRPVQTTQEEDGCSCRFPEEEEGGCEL", "assay": "cell-based or functional assay"}, "hPD-L1-mFc": {"target": "T4, hPD-L1-mFc (human; mouse, UniProt Q9NZQ7 19-239)", "T4 construct": "range 19-239; also called human PD-L1 extracellular domain with mouse IgG2a Fc; not shown: Fc portion of mouse IgG2a at the C-terminus, amino acids E98-K330", "T4 sequence (Q9NZQ7 19-239 limits assumed)": "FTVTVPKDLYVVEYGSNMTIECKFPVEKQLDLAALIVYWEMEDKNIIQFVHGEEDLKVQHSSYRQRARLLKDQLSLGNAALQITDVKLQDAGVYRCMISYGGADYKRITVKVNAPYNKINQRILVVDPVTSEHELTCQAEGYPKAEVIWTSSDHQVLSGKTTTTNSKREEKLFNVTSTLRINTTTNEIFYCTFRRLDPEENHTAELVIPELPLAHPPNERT", "assay": "blocking ELISA, 0.7 nM hPD-L1-mFc binding to coated hPD1-hFc", "description": "In the PD-L1 blocking assay, hPD1-hFc protein ([…] in PBS) was coated onto a 96-well microtiter plate overnight at 4° C. […] The plates were then developed using TMB substrate solution (BD Biosciences) according to the manufacturer's recommended procedure and the absorbance at 450 nm was measured on a SpectraMax I3x plate reader.\nas §1"}, "human 4-1BB on cells [9]": {"target": "T3, human 4-1BB on cells", "assay": "cell-based or functional assay", "remark": "listed apart in the source"}},
  "data": [
    {"binder": "mAb9364 (antibody, V domains shown, bivalent parental anti-PD-L1 antibody; captured by anti-human Fc); also called 9364P3; parental bivalent PD-L1 antibody) VH: EVQLVESGGGLVQPGRSLRLSCAASGFTFDDYALHWVRQAPGKGLEWVSGISWTGGTIDYADSVKGRFTISRDNAKNSLYLQMSSLRTEDTAIYYCTRDIRGNWKYGGWFDPWGQGTLVTVSS VL: not shown", "values": [
      {"measurement": "% Blocking at 100 nM mAb", "setting": "[1]", "value": 0, "unit": "%"},
      {"measurement": "EC50", "setting": "human PD-L1 on cells [2]", "value": 0.0084, "unit": "nM"},
      {"measurement": "Fold change (max MFI over secondary antibody alone)", "setting": "human PD-L1 on cells [2]", "value": 4.4, "unit": "fold"},
      {"measurement": "Kd", "setting": "[3]", "value": 0.13, "unit": "nM"},
      {"measurement": "koff", "setting": "[3]", "value": "7.42e-05", "unit": "s⁻¹"},
      {"measurement": "kon", "setting": "[3]", "value": 571000, "unit": "M⁻¹ s⁻¹"},
      {"measurement": "t½", "setting": "[3]", "value": 2.59, "unit": "h"},
      {"measurement": "Fold change (max MFI over secondary antibody alone)", "setting": "human PD-L1 on cells [4]", "value": 9.5, "unit": "fold"},
      {"measurement": "EC50", "setting": "human PD-L1 on cells [5]", "value": 0.86, "unit": "nM"},
      {"measurement": "Fold change (max MFI over secondary antibody alone)", "setting": "human PD-L1 on cells [5]", "value": 2200, "unit": "fold"},
      {"measurement": "AP-1 luciferase EC50, Jurkat/AP1-luc/hPD1 + WSU-DLCL2/hPD-L1 + CD20xCD3", "setting": "human PD-L1 on cells [6]", "value": 0.00651, "unit": "nM"},
      {"measurement": "270 nM h4-1BB-mmH Bind (RU)", "setting": "[7]", "value": 2, "unit": "RU"},
      {"measurement": "binding result", "setting": "[7]", "value": "no binding (tested: 270 nM)"},
      {"measurement": "IL2 release MAX, human CD3+ T cells + HEK293/hCD20/hPSMA + CD20xCD3", "setting": "human 4-1BB on cells [8]", "value": 13.4, "unit": "pg/mL"},
      {"measurement": "IL2 release MAX, human CD3+ T cells + HEK293/hCD20/hPSMA, no CD20xCD3", "setting": "human 4-1BB on cells [8]", "value": 3.5, "unit": "pg/mL"},
      {"measurement": "IL2 release MAX, human CD3+ T cells + HEK293/hCD20/hPSMA/hPD-L1 + CD20xCD3", "setting": "human 4-1BB on cells [8]", "value": 9.3, "unit": "pg/mL"},
      {"measurement": "IL2 release MAX, human CD3+ T cells + HEK293/hCD20/hPSMA/hPD-L1, no CD20xCD3", "setting": "human 4-1BB on cells [8]", "value": 3.5, "unit": "pg/mL"},
      {"measurement": "IC50", "setting": "hPD-L1-mFc", "value": 0.52, "unit": "nM"},
      {"measurement": "NFkB-luciferase MAX (RLU), Jurkat/NFkB-Luc/h41BB + HEK293/hCD20/hPSMA", "setting": "human 4-1BB on cells [9]", "value": 60900, "unit": "RLU"},
      {"measurement": "NFkB-luciferase MAX (RLU), Jurkat/NFkB-Luc/h41BB + HEK293/hCD20/hPSMA/hPD-L1", "setting": "human 4-1BB on cells [9]", "value": 70900, "unit": "RLU"}
    ]}
  ]
}
